Measurements from patent publication US20040180417A1, “Secretase/sheddase with asp-ase activity on the beta-site app-cleaving enzyme (bace, asp2, memepsin2)” (priority 2000, published 2004).

B1: α2M: wild type α2-macroglobulin (protein, UniProt P01023 24-1474, looked up)
Alpha-2-macroglobulin: SVSGKPQYMVLVPSLLHTETTEKGCVLLSYLNETVTVSASLESVRGNRSLFTDLEAENDVLHCVAFAVPKSSSNEEVMFLTVQVKGPTQEFKKRTTVMVKNEDSLVFVQTDKSIYKPGQTVKFRVVSMDENFHPLNELIPLVYIQDPKGNRIAQWQSFQLEGGLKQFSFPLSSEPFQGSYKVVVQKKSGGRTEHPFTVEEFVLPKFEVQVTVPKIITILEEEMNVSVCGLYTYGKPVPGHVTVSICRKYSDASDCHGEDSQAFCEKFSGQLNSHGCFYQQVKTKVFQLKRKEYEMKLHTEAQIQEEGTVVELTGRQSSEITRTITKLSFVKVDSHFRQGIPFFGQVRLVDGKGVPIPNKVIFIRGNEANYYSNATTDEHGLVQFSINTTNVMGTSLTVRVNYKDRSPCYGYQWVSEEHEEAHHTAYLVFSPSKSFVHLEPMSHELPCGHTQTVQAHYILNGGTLLGLKKLSFYYLIMAKGGIVRTGTHGLLVKQEDMKGHFSISIPVKSDIAPVARLLIYAVLPTGDVIGDSAKYDVENCLANKVDLSFSPSQSLPASHAHLRVTAAPQSVCALRAVDQSVLLMKPDAELSASSVYNLLPEKDLTGFPGPLNDQDNEDCINRHNVYINGITYTPVSSTNEKDMYSFLEDMGLKAFTNSKIRKPKMCPQLQQYEMHGPEGLRVGFYESDVMGRGHARLVHVEEPHTETVRKYFPETWIWDLVVVNSAGVAEVGVTVPDTITEWKAGAFCLSEDAGLGISSTASLRAFQPFFVELTMPYSVIRGEAFTLKATVLNYLPKCIRVSVQLEASPAFLAVPVEKEQAPHCICANGRQTVSWAVTPKSLGNVNFTVSAEALESQELCGTEVPSVPEHGRKDTVIKPLLVEPEGLEKETTFNSLLCPSGGEVSEELSLKLPPNVVEESARASVSVLGDILGSAMQNTQNLLQMPYGCGEQNMVLFAPNIYVLDYLNETQQLTPEIKSKAIGYLNTGYQRQLNYKHYDGSYSTFGERYGRNQGNTWLTAFVLKTFAQARAYIFIDEAHITQALIWLSQRQKDNGCFRSSGSLLNNAIKGGVEDEVTLSAYITIALLEIPLTVTHPVVRNALFCLESAWKTAQEGDHGSHVYTKALLAYAFALAGNQDKRKEVLKSLNEEAVKKDNSVHWERPQKPKAPVGHFYEPQAPSAEVEMTSYVLLAYLTAQPAPTSEDLTSATNIVKWITKQQNAQGGFSSTQDTVVALHALSKYGAATFTRTGKAAQVTIQSSGTFSSKFQVDNNNRLLLQQVSLPELPGEYSMKVTGEGCVYLQTSLKYNILPEKEEFPFALGVQTLPQTCDEPKAHTSFQISLSVSYTGSRSASNMAIVDVKMVSGFIPLKPTVKMLERSNHVSRTEVSSNHVLIYLDKVSNQTLSLFFTVLQDVPVRDLKPAIVKVYDYYETDEFAIAEYNAPCSKDLGNA
B2: PC7 (protein)
chain: SIHFNDPKYPQQWHLNNRRSPGRDINVTGVWERNVTGRGVTVVVVDDGVEHTVQDIAPNYSPEGSYDLNSNDPDPMPHPDEENGNHHGTRCAGEIAAVPNNSFCAVGVAYGSRIAGIRVLDGPLTDSMEAVAFNKHYQINDIYSCSWGPDDDGKTVDGPHQLGKAALQHGVMAGRQGFGSIFVVASGNGGQHNDNCNYDGYANSIYTVTIGAVDEEGRMPFYAEECASMLAVTFSGGDKMLRSIVTTDWDLQKGTGCTEGHTGTSAAAPLAAGMIALMLQVRPCLTWRDVQHIIVFTATQYEDHRADWLTNEAGFSHSHQHGFGLLNAWRLVNAAKIWTSVPYLASYVSPMLKENKAVPRSPHSLEVLWNVSRTDLEMSGLKTLEHVAVTVSITHPRRGSLELKLFCPSGMMSLIGAPRSMDSDPNGFNDWTFSTVRCWGERARGVYRLVIRDVGDEPLQVGILQQWQLTLYGSTWSPVDIKDRQSLLESAMSGKYLHDDFTLPCPPGLKIPEEDGYSITPNTLKT

Assays:
[1] = test system: proBACE processing by PC-like enzyme; test: proBACE processing in HK293 cells co-expressing [BACEF]FG/V5 and PC-inhibitors (pulse-chase, immunoprecipitation, SDS-PAGE); assay type: cell-based, human; settings: co-expression; 20 min [35S]Met pulse, 90 min chase; FG immunoprecipitation
Protocol: FIG. 1: HK293 cells were transiently co-transfected with either ([BACEF]FG/V5+BDNF) [control, CTL] (A,C) or ([BACEF]FG/V5+α1-PDX) (B,D) cDNAs. Two days post-transfections the cells were pulse-labeled in the absence or presence of […] BFA for 15 min with [^35S]Met and then chased for 1 or 2h. Cell lysates were immunoprecipitated with either the FG or V5 mAbs and analysed by SDS-PAGE on 8% tricine gels. The migration position of the 53 kDa molecular mass standard and those of proBACE (pBACE) and BACE are emphasized.
FIG. 2: [A] HK293 cells were transiently co-transfected with cDNAs coding for either ([BACEF]FG/V5+BDNF) [control, CTL], ([BACEF-R45A]FG/V5+BDNF) or ([BACEF-R42A]FG/V5+BDNF) or ([BACEF]FG/V5+either α1-PDX, the prosegments of furin, PC5, PC7, SKI-1, furin-mutated (α2M-F) or wild type (α2M) α2-macroglobulin. The cells were pulse-labeled for 20 min with [^35S]Met and then chased for 90 min. Cell lysates were immunoprecipitated with the FG mAb and analysed by SDS-PAGE on 8% tricine gels. [B] HK293 cells were transiently co-transfected with cDNAs coding for either ([BACEF]FG/V5+BDNF) [CTL], ([BACEF]FG/V5+furin) or ([BACEF]FG/V5+α1-PDX). The cells were then pulse-labeled for 2h with Na2[^35SO4]. Cell lysates were immunoprecipitated with the FG or V5 mAbs and analysed by SDS-PAGE on 8% tricine gels. […]

[2] = test system: [proBACES]FG/V5; test: In vitro PC-mediated processing of proBACES (Western blot); assay type: biochemical, mouse; settings: equivalent hydrolytic activities of PCs, 1-4 hours incubation

Row | Molecule | quantity of the 72 kDa proBACE (pBACEG, Golgi form) [1] | ability to process proBACE into BACE [2]
1 | B1 | barely detectable | 
2 | B2 |  | barely, if at all, able
